The data set deals with the molecule itself. Put plainly: cross-linking; PEG5 cross-linker (0.1 M-1 M), protein at 20 nM and 50 nM, 50 mM sodium phosphate, 150 mM NaCl, pH 7.4, 25 °C, 30 min, read by SDS-PAGE.

B1: PRC1 dimerization domain (PRC1-DD; aa 1-65 of Protein Regulator of Cytokinesis 1) (domain or fragment, human, UniProt O43663-1 1-65, looked up)
chain: MRRSEVLAEESIVCLQKALNHLREIWELIGIPEDQRLQRTEVVKKHIKELLDMMIAEEESLKERL
notes: Protein Regulator of Cytokinesis 1 (PRC1), human, isoform 1 (NP_003972; full length 620 residues), residues 1-65 (dimerization domain); Cloned between Nde I and Xho I of pET-21a with a C-terminal His-tag; no removal of the tag is described; For NMR the protein was 15N- or 15N/13C-labelled; isotopic heterodimers were made by mixing unlabelled and labelled protein in 8 M urea; also called …
As usually defined, the stoichiometry N is the number of molecules, sites or subunits per partner or assembly. Regarding B1, the “stoichiometry N” value came to 2.
